Experimental data as given in article PMC2761489.

Tests used:
[1] = molecular target: GMPCPP microtubules (GMPCPP-tubulin microtubule lattice; seeds and GMPCPP-grown extensions) of porcine brain tubulin (porcine) (UniProt P02550); experiment: two-color TIRF microscopy; GMPCPP seeds immobilised on coverslips (biotin-neutravidin or anti-rhodamine antibodies); 50 nM EB1-GFP with 12 uM free tubulin (10-24 uM in other runs) and 1 mM GTP in Imaging Buffer (BRB80, glucose, glucose-oxidase, catalase, casein, beta-mercaptoethanol), no additional salt; 35 C
[2] = molecular target: Microtubule extensions grown from free porcine brain tubulin with GTP (GDP-tubulin lattice with growing ends) (porcine) (UniProt P02550); experiment: as above

## C-terminus GFP-tagged EB1 (from UniProt Q15691 1-268) (natural protein)
[1]
  average fluorescence intensity, seed minus background: 62.6 AU
[2]
  average fluorescence intensity, extension minus background: 12.8 AU
